In PMC7291142:

Test system: RSV Gag∆PR (Rous sarcoma virus (Prague C strain))
Test: FA salt titration

Row | Substance | Kd [mM]
1 | MΨ-WT | 0.23
2 | MΨ-∆SL-B | 0.096
3 | MΨ-G218C | 700
4 | MΨ-∆L3 | 31
5 | MΨ-A197C | 9.8
